These results are taken from the supplement of paper PMC9170038.

Data set [1] deals with MS2 coat protein. Kind of data set: apparent KD of MS2 coat protein, switch ON state; designed switch direction (-1 OFF switch, 1 ON switch): -1; higher = weaker reporter binding. The conditions noted are these: FMN input: 0 or 200 uM; Eterna round: R93 (includes R88 designs). Summed up:
(§1)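 Apparent KD is reported per design as the median of normalised binding-curve fits across its clusters. The RNA switches were made by on-chip transcription from Illumina sequencing clusters. SNAP-549-labelled MS2 coat protein was then added in twofold steps (0.7 or 1.5 nM to 3 µM; 0.8–1.5 h to 10–20 min per step) in 100 mM Tris-HCl pH 7.5, 80 mM KCl, 4 mM MgCl2, without or with constant ligand.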

Data set [2] concerns MS2 coat protein. Nature of the data set: apparent KD of MS2 coat protein, switch OFF state (with FMN for OFF switches, without FMN for ON switches); designed switch direction (-1 OFF switch, 1 ON switch): -1; higher = weaker reporter binding. The conditions noted are these: FMN input: 0 or 200 uM; Eterna round: R93 (includes R88 designs). In a few lines:
as §1

For “AACAUGUUAGGAUAUUGAAGAAAAGAAAAGAAAGAAAAGAACAAGAAGGAACAUGAGGAUCACCCAUGUAAGAA [EteRNA is fun!]”, the “apparent KD of MS2 coat protein” value with MS2 coat protein [1] came out at 25 nM; with MS2 coat protein [2], 17.2 nM.
Taken in the same sequence, the figures for “GAAAAGUCAGGAUAUGUGGAAAAAAUAAAAAAAAUAAAAACACAGAAGGGACAUGAGGAUCACCCAUGUUAAAG [Mat - Exclusion 4 - Mayanna - D138]” were 41.5 nM and 32.5 nM.
Consider “GAAAAGUCAGGAUAUGCAGACAAAGCAAAAAAGCAAUGUCUGCAGAAGGGACAUGAGGAUCACCCAUGUAAAAG [Mat - Exclusion 4 - Mayanna - D116]”, for which the “apparent KD of MS2 coat protein” value is 61.1 nM in the data set on MS2 coat protein [1] and 70.1 nM with MS2 coat protein [2].
The matching figures for “AAAAAGUCAGGAUAUAGCAAAGGUCACGAAAGUGACAAAGGCUAGAAGGGACAUGAGGAUCACCCAUGUAAAAA [Fiskers Exclusion 4 D2]”: 53 nM and 38.8 nM.
Taken in the same sequence, the figures for “GAUAGUGAAGGAUAUACUGGAGGAGUGCGAUAAAAGAAAGAACAUGAGGAUCACCCAUGUAGAAGGUCAGAAGU [JR_Exc002_Sub1226]” were 24.7 nM and 27.3 nM.
Taken in the same sequence, the figures for “AAAAAACAUGAGGAUCACCCAUGUCAGGAUAUCUGGAGAAACGGAAAGAAAAAGAAACGGAGAAGGGACAUAAA [Starryjess mod]” were 29.6 nM and 28.5 nM.
With “AGCUAGUCAGGAUAUACGAACAGCUCAAAAGAGCUGAAGGGACAUGAGGAUCACCCAUGUAGAAGGGACUAGCA [Mat - Exclusion 2 - JL mod - D27]”, the “apparent KD of MS2 coat protein” value came to 24.5 nM in the data set on MS2 coat protein [1] and 89.6 nM in the data set on MS2 coat protein [2].
The matching figures for “AUAAAGAGAGGAUAUACAUGAGGAUCACCCAUGUAAGAAAUAAAAUAAAUAAAGGGAAGUAGAAGGCUCAAAUA [Denovo 2]”: 28 nM and 42.5 nM.
Taken in the same sequence, the figures for “AAGAAUGGAGGAUAUACAUGAGGAUCACCCAUGUAAAAGAAAGAGGGAAAAGAGAAAAGUAGAAGGCCAAAGAA [Ptolemy VII Neos Philopator]” were 36 nM and 34.4 nM.
The matching figures for “GAAAAGGUAGGAUAUACGAAAAAAAAGGGUAAAAAAUAAAAACAUGAGGAUCACCCAUGUAGAAGGACCAAAAG [Mat - Exclusion 2 - Tesla mod - D40]”: 28.8 nM and 55.3 nM.
“CGCAAACAUGAGGAUCACCCAUGUGAGGAUAUGUGAGCACGAGAAAGAUAAAGUGAGCACAGAAGGCACAAGCG [JR_Exclusion1_Sub6]”: the “apparent KD of MS2 coat protein” value with MS2 coat protein [1] turned out to be 34.8 nM; in the data set with MS2 coat protein [2] it was 27.3 nM.
The matching figures for “AGAAAGUCAGGAUAUGCAGAAAAAAAAACGAAAAAAAAACUGCAGAAGGGACAUGAGGAUCACCCAUGUUAAGA [Mat - Exclusion 4 - Mayanna - D130]”: 49 nM and 49 nM.
“CAGUACUGAGGAUAUACAUGAGGAUCACCCAUGUGAUCAAGCUACGAAAGUAGCAAAAGUAGAAGGCAGUACUG [Ex3: 810]”: the entries for the “apparent KD of MS2 coat protein” value with MS2 coat protein [1] and in the data set on MS2 coat protein [2] were 277 nM and 56.7 nM, respectively.
The matching figures for “AAAGGCUUAGGAUAUACAGUGGUCCCAAUGGGCAUCCGAAAACAUGAGGAUCACCCAUGUAGAAGGAAGAAAAU [Raleor]”: 68.5 nM and 64.7 nM.
Taken in the same sequence, the figures for “ACAUGACAUGAGGAUCACCCAUGUGAGGAUAUGCGAAAAAAAUUUUUAAAAAAAAUUGGCAGAAGGCACAAAAU [George Ritzer.]” were 88.9 nM and 99.1 nM.
The matching figures for “AACUGACAUGAGGAUCACCCAUGUCAGGAUAUGACAUCGAAAAAAAAAAAAAUCGUUGUCAGAAGGGACAUGGA [Design 74: Sub-opt R]”: 20.9 nM and 32.5 nM.
For “AAAAAGGUAGGAUAUACGAAAAAAAAGGGUAGAAAAAAAACACAUGAGGAUCACCCAUGUAGAAGGACCAAAAA [Ex 2 sub 1]”, the results for the “apparent KD of MS2 coat protein” value in the data set on MS2 coat protein [1] and in the data set with MS2 coat protein [2] were 26.3 nM and 77.4 nM, respectively.
Taken in the same sequence, the figures for “CCGAGACAUGAGGAUCACCCAUGUGAGGAUAUAGGUGUAUGCAAAAAAAAGUUAAAAACUAGAAGGCACAGAGG [JR_Exc001_Sub307]” were 37 nM and 30.9 nM.
Taken in the same sequence, the figures for “AACAGUACAGGAUAUACAUGAGGAUCACCCAUGUGAGAAUUAAGUGGAGAACCACAAAGUAGAAGGGUACUGGA [Mat - Exclusion 3 - JL mod - D2]” were 37.1 nM and 250 nM.
Consider “AAGAAAGUAGGAUAUACAAGGAAGAAAGAAAAGAAAAGAAAACAUGAGGAUCACCCAUGUAGAAGGACUUAGAA [EteRNA is fun!]”, for which the “apparent KD of MS2 coat protein” value in the data set with MS2 coat protein [1] came out at 27.5 nM; in the data set on MS2 coat protein [2], 18.7 nM.
Taken in the same sequence, the figures for “AAAAAGUCAGGAUAUGCAGAUAAAAAAACGAAAAAAAAUCUGCAGAAGGGACAUGAGGAUCACCCAUGUAAAAA [Ex 4 May 5]” were 48.5 nM and 40.4 nM.
Taken in the same sequence, the figures for “ACAGUUACAGGAUAUACAAGGGAAAAUAAAAAUAAACUUCAACAUGAGGAUCACCCAUGUAGAAGGGUAACUGA [Ex2 Design 199: Random 14]” were 35.5 nM and 112 nM.
Taken in the same sequence, the figures for “AACAGUACAGGAUAUACAUGAGGAUCACCCAUGUGAAAAUUAAGUGGAAAACCACAAGGUAGAAGGGUACUGGA [Mat - Exclusion 3 - Eli mod - D63]” were 21.6 nM and 78.7 nM.
On to “AAGAACUGAGGAUAUACAAAAGAAAAGAAAAGAAAGAAAGAACAUGAGGAUCACCCAUGUAGAAGGCGGAAGAA [Khahotepre Sobekhotep VI]”, for which the “apparent KD of MS2 coat protein” value in the data set with MS2 coat protein [1] stood at 31.5 nM; in the data set on MS2 coat protein [2], 14.7 nM.
The matching figures for “AAAUAGCAAGGAUAUACAUGAGGAUCACCCAUGUAAGGAUGGAAAGUAAUAGAAGAAAGUAGAAGGUGCAAAUA [Ex 3 Tesla 4]”: 31.7 nM and 36 nM.
In the case of “AUCAUGUCAGGAUAUCAGUAGUAAAAAAAAAAAAUUACUACUGAGAAGGGACAUGAGGAUCACCCAUGUCCAAA [EX4 306: Super Stable 6]”, the “apparent KD of MS2 coat protein” value in the data set with MS2 coat protein [1] came out at 32.1 nM; in the data set with MS2 coat protein [2], 46.2 nM.
With “GAAAAACAUGAGGAUCACCCAUGUCAGGAUAUCCAAAUAAAAAUAAAAUAAAAUAAAAGGAGAAGGGACAAAAG [Mat - Same state - Mayanna Mod - D101]”, the figures for the “apparent KD of MS2 coat protein” value in the data set on MS2 coat protein [1] and in the data set with MS2 coat protein [2] were 42.4 nM and 40 nM, respectively.
For the sequence “AAAAAACAUGAGGAUCACCCAUGUAAGGAUAUGCAAAACCCAUAUAAAAAGGGAAAAAGCAGAAGGUACAAAAA [Starry Exclusion 1.1 (wbt round 1 mod)]”, the “apparent KD of MS2 coat protein” value in the data set on MS2 coat protein [1] was determined as 24.9 nM; in the data set with MS2 coat protein [2], 33.1 nM.
As for “AAAAGACAUGAGGAUCACCCAUGUUAGGAUAUGGAAAAACAAAAAAAAAAAAAAAAAACCAGAAGGAGCGAGGG [another 1 four]”, the “apparent KD of MS2 coat protein” value in the data set on MS2 coat protein [1] amounted to 190 nM; in the data set on MS2 coat protein [2], 132 nM.
Taken in the same sequence, the figures for “AGUUGGCGAGGAUAUACAUGAGGAUCACCCAUGUGAAAUAAAUAAAAAAUAAAAGGGAGUAGAAGGCGCUGACA [73%, Moding Norbert Elias, 17]” were 43.6 nM and 82.3 nM.
Taken in the same sequence, the figures for “AACGAACAUGAGGAUCACCCAUGUCAGGAUAUGCGAAGAACGAUCGAACAAACGAUAAGCAGAAGGGACAGAGA [Amethyst 98]” were 25.1 nM and 50 nM.
Taken in the same sequence, the figures for “AACAGGUCAGGAUAUGUGGAAAAAAUAAAAAAAAUAAAAACACAGAAGGGACAUGAGGAUCACCCAUGUUAACA [May 25]” were 36.6 nM and 38.8 nM.
Turning to “AAAAAGUGAGGAUAUGUCAAAAGUCACAAAAGUGACAAAAGACAGAAGGCACAUGAGGAUCACCCAUGUGAAAA [Mod of Eli - Late G + early G segment 3]”, the “apparent KD of MS2 coat protein” value in the data set with MS2 coat protein [1] was 26.8 nM; in the data set with MS2 coat protein [2], 38.8 nM.
For “AAAAAGGAAGGAUAUACGAACAUGUCAAAAGACGUGAAGGGACAUGAGGAUCACCCAUGUAGAAGGUCUAAAAA [JL Half Open 26]”, the “apparent KD of MS2 coat protein” value with MS2 coat protein [1] was 32.4 nM; in the data set on MS2 coat protein [2] it was 22.9 nM.
The matching figures for “AACGAGUCAGGAUAUACAAAAAGUAAAUAAGUAAAACCAAAGUAGAAGGGACAUGAGGAUCACCCAUGUAAAUA [JR_Exc004_Sub019]”: 42.8 nM and 24.4 nM.
The matching figures for “AAAAAGUGAGGAUAUACGCUGUGGAGUAGACACAACCAGUCGUAGAAGGCACAUGAGGAUCACCCAUGUCCAAA [EX4 Malc#19]”: 22 nM and 49.6 nM.
Taken in the same sequence, the figures for “UACGGACAUGAGGAUCACCCAUGUGAGGAUAUCGAUACCGAUAGCAUAAUAUAAUCGGCGAGAAGGCACAGCGU [JR_Exc001_Sub505]” were 39.9 nM and 54.7 nM.
Turning to “AUAAACUGAGGAUAUACAUGAGGAUCACCCAUGUAAAAAAAGAAAUGAUCCUCAGGAAGUAGAAGGCAGAAUAA [JR_Exc003_Sub017]”, the entries for the “apparent KD of MS2 coat protein” value with MS2 coat protein [1] and with MS2 coat protein [2] were 13.2 nM and 28.3 nM, respectively.
The matching figures for “AGCUAGUCAGGAUAUACAAACAUGUCGAAAGACGUGAAGGGACAUGAGGAUCACCCAUGUAGAAGGGACUAGCA [Mod of Janderson's WEB Mod v.2]”: 50 nM and 273 nM.
